Measurements published in paper PMC11984392, “EphA2-targeted alpha-particle theranostics for enhancing PDAC treatment” (Theranostics, 2025).
*1 amine or outer side, *2 acyl side, *3 side chain or, on linkers, in order; H or OH if unused. Bridges are numbered along the chain shown (N, C = ends). Primed or numbered codes have the meaning given here. [ ]: non-standard residue; d: D form. The star is where a group is joined. DOTA = O=C(O)CN1CCN(CC(=O)O)CCN(CC(=O)*)CCN(CC(=O)O)CC1; TATA = O=C(CC[*:1])N1CN(C(=O)CC[*:2])CN(C(=O)CC[*:3])C1; NOTA = O=C(O)CN1CCN(CC(=O)O)CCN(CC(=O)*)CC1; Hyp = O=C(O)[C@@H]1C[C@@H](O)CN1; hArg = N=C(N)NCCCC[C@H](N)C(=O)O; PEG2′ = not defined here; Sar = CNCC(=O)O

How the values were obtained:
Conditions in all cases: both partners purified
His-tagged human EphA2 [1] = biological target: T1, His-tagged human EphA2 (human, UniProt P29317 24-537); assay: SPR; Biacore T200, CM5 chip, 25 °C; His-tagged human EphA2 captured on immobilised anti-His antibody (FC2); AJ210 as analyte, 0.625-80 nM, in HBS-P + 0.1% DMSO, 50 μL/min, contact 120 s, dissociation 600 s; 1:1 kinetics model
T1 construct: human EphA2 (Ephrin receptor A2), recombinant, 56.9 kDa; also called recombinant human EphA2 protein; hEphA2; source: bought: R&D systems, catalog # 3035-A2
T1 sequence (P29317 24-537): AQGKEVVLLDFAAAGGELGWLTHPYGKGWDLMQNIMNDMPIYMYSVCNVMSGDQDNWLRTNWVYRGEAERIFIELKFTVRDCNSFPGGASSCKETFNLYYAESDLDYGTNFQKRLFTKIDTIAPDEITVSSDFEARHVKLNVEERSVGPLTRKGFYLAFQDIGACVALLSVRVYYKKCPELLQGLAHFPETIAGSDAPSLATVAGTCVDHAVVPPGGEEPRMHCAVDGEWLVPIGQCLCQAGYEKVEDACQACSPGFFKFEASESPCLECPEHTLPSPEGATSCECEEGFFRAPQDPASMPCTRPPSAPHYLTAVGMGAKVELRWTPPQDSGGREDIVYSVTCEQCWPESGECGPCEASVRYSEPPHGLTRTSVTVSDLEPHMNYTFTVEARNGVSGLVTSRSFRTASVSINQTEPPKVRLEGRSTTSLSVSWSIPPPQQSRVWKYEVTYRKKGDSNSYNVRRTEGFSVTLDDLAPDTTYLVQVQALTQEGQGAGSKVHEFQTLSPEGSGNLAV

His-tagged mouse EphA2 = biological target: T2, His-tagged mouse EphA2 (mouse, UniProt Q03145 26-538); assay: SPR; Biacore T200, CM5 chip, 25 °C; His-tagged EphA2 captured (~750 RU) on amine-coupled anti-His antibody; peptide as analyte in HBS-P (10 mM HEPES pH 7.4, 150 mM NaCl, 0.05% P20) + 0.1% DMSO, 50 μL/min, contact 120 s, dissociation 600 s; 1:1 kinetics model
T2 construct: Mouse EphA2, recombinant, His-tagged, printed as 58 kDa; also called mEphA2; recombinant mouse EphA2; source: bought: SinoBiological, cat.# 50586-M08H

His-tagged human EphA2 [2] = biological target: T3, His-tagged human EphA2 (human, UniProt P29317 24-537); assay: as above
T3 construct: Human EphA2 (Ephrin receptor A2), recombinant, His-tagged, printed as 56.9 kDa; also called hEphA2; recombinant human EphA2; source: bought: R&D systems, catalog # 3035-A2
T3 sequence (P29317 24-537): as above

T2 sequence (Q03145 26-538): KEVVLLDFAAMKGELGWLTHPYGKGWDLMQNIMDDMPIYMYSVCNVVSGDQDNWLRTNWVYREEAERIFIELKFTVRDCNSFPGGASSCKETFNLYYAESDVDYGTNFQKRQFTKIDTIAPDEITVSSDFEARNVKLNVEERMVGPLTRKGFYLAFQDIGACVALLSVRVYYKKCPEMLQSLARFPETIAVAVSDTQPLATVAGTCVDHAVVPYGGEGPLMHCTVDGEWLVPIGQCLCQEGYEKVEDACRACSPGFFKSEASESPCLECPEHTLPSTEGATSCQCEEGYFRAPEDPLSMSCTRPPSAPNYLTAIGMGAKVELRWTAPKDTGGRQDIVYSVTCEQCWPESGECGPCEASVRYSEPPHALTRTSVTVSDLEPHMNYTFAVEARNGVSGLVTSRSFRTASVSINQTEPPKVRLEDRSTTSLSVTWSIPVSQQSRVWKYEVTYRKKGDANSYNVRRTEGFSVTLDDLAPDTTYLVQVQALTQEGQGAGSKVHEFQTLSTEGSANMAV

B1: AJ210 (peptide)
chain: {DOTA}-A[hArg]DC[Hyp]LVNPLCLHP[dD]W[hArg]C-NH2
modifications: linker 4-11-18 via TATA
SMILES: CC(C)C[C@@H]1NC(=O)[C@@H]2CSCCC(=O)N3CN(CN(C3)C(=O)CCSC[C@H](NC(=O)[C@H](CC(=O)O)NC(=O)[C@H](CCCCNC(=N)N)NC(=O)[C@H](C)NC(=O)CN3CCN(CC(=O)O)CCN(CC(=O)O)CCN(CC(=O)O)CC3)C(=O)N3C[C@H](O)C[C@H]3C(=O)N[C@@H](CC(C)C)C(=O)N[C@@H](C(C)C)C(=O)N[C@@H](CC(N)=O)C(=O)N3CCC[C@H]3C(=O)N[C@@H](CC(C)C)C(=O)N2)C(=O)CCSC[C@@H](C(N)=O)NC(=O)[C@H](CCCCNC(=N)N)NC(=O)[C@H](Cc2c[nH]c3ccccc23)NC(=O)[C@@H](CC(=O)O)NC(=O)[C@@H]2CCCN2C(=O)[C@H](Cc2c[nH]cn2)NC1=O
Kd (His-tagged human EphA2 [1]): 2.4 nM | koff (His-tagged human EphA2 [1]): 0.00136 s⁻¹ | kon (His-tagged human EphA2 [1]): 561000 M⁻¹ s⁻¹

B2: AJ201 (peptide)
peptide: {NOTA-PEG2′}-GR[Sar][Sar][Sar]GA[hArg]DC[Hyp]LVNPLCLHP[dD]W[hArg]C-NH2
modifications: linker 10-17-24 via TATA; not fully specified; also: hydroxyproline, place not given here
notes: also called non-radioactive AJ201; bicyclic peptide AJ201; source: synthetic peptide, synthesized by CPC Scientific Inc., >90% purity
Kd (His-tagged mouse EphA2): 0.6 nM | Kd (His-tagged human EphA2 [2]): 0.2 nM
